Source: patent publication US12285470B2, “Trim proteins and galectins cooperate and codirect autophagy and are useful in the treatment of autophagy related diseases” (UNM RAINFOREST INNOVATIONS, priority 2016, dated 2025)
Each block holds one molecule with its values, some of them ahead of it.

How the values were obtained:
Galectin-8 = target: T1, Galectin-8 (Homo sapiens, UniProt O00214); test: GST pulldown of in vitro translated radiolabeled TRIMs with GST-Galectin-8; format: binding; settings: in vitro translated 35S-Myc-HA-TRIMs
T1 construct: made in house; host or cells: Escherichia coli SoluBL21
T1 sequence (O00214 1-359 isoform O00214-2): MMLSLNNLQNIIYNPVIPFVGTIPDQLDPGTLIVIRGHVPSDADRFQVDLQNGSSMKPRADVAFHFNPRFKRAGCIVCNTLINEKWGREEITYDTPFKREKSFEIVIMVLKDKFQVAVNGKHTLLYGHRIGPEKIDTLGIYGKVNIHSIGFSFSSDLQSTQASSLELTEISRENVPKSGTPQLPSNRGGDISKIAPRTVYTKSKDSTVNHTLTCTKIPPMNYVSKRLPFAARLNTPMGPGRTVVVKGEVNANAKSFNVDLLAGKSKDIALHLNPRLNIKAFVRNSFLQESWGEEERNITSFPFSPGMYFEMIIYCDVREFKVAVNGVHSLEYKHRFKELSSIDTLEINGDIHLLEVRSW
Source text: (§1) GST-fusion proteins were expressed in Escherichia coli SoluBL21 (Amsbio). […] The [^35S] labeled proteins were produced using the TNT T7 Quick Coupled Transcription/Translation System (Promega) in the presence of [^35S] L-methionine. The proteins were eluted from washed beads by boiling in SDS-PAGE gel loading buffer. separated by SDS-PAGE, and radiolabeled proteins were detected in a Fujifilm bioimaging analyzer BAS-5000 (Fuji).

Galectin-3 = target: T2, Galectin-3 (Homo sapiens, UniProt P17931); test: GST pulldown of in vitro translated radiolabeled TRIMs with GST-Galectin-3; format: binding; settings: in vitro translated 35S-Myc-HA-TRIMs, no ULK1 added
T2 construct: made in house; host or cells: Escherichia coli SoluBL21
Source text: as §1

T2 sequence (P17931 whole entry): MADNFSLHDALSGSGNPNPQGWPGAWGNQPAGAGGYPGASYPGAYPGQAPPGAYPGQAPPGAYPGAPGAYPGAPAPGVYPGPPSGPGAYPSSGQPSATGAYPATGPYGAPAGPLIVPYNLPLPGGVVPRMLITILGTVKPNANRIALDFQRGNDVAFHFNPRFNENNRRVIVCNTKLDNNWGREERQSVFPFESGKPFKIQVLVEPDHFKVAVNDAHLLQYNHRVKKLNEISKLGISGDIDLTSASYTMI

Molecule: TRIM21: TRIM protein, Accession No. NM_003141, SEQ ID NO: 8
binding to GST-Galectin-8 in GST pulldown (Galectin-8): did not | binding to GST-Galectin-3 in GST pulldown (Galectin-3): did not

B1: TRIM22: TRIM protein, Accession No. NM_006074, SEQ ID NO: 9 (protein, listed as Homo sapiens)
chain: MDFSVKVDIEKEVTCPICLELLTEPLSLDCGHSFCQACITAKIKESVIISRGESSCPVCQTRFQPGNLRPNRHLANIVERVKEVKMSPQEGQKRDVCEHHGKKLQIFCKEDGKVICWVCELSQEHQGHQTFRINEVVKECQEKLQVALQRLIKEDQEAEKLEDDIRQERTAWKNYIQIERQKILKGFNEMRVILDNEEQRELQKLEEGEVNVLDNLAAATDQLVQQRQDASTLISDLQRRLRGSSVEMLQDVIDVMKRSESWTLKKPKSVSKKLKSVFRVPDLSGMLQVLKELTDVQYYWVDVMLNPGSATSNVAISVDQRQVKTVRTCTFKNSNPCDFSAFGVFGCQYFSSGKYYWEVDVSGKIAWILGVHSKISSLNKRKSSGFAFDPSVNYSKVYSRYRPQYGYWVIGLQNTCEYNAFEDSSSSDPKVLTLFMAVPPCRIGVFLDYEAGIVSFFNVTNHGALIYKFSGCRFSRPAYPYFNPWNCLVPMTVCPPSS
binding to GST-Galectin-8 in GST pulldown (Galectin-8): bound | binding to GST-Galectin-3 in GST pulldown (Galectin-3): bound

B2: TRIM20: TRIM protein, Accession No. NM_000243, SEQ ID NO: 7 (protein, listed as Homo sapiens)
chain: MAKTPSDHLLSTLEELVPYDFEKFKFKLQNTSVQKEHSRIPRSQIQRARPVKMATLLVTYYGEEYAVQLTLQVLRAINQRLLAEELHRAAIQEYSTQENGTDDSAASSSLGENKPRSLKTPDHPEGNEGNGPRPYGGGAASLRCSQPEAGRGLSRKPLSKRREKASEGLDAQGKPRTRSPALPGGRSPGPCRALEGGQAEVRLRRNASSAGRLQGLAGGAPGQKECRPFEVYLPSGKMRPRSLEVTISTGEKAPANPEILLTLEEKTAANLDSATEPRARPTPDGGASADLKEGPGNPEHSVTGRPPDTAASPRCHAQEGDPVDGTCVRDSCSFPEAVSGHPQASGSRSPGCPRCQDSHERKSPGSLSPQPLPQCKRHLKQVQLLFCEDHDEPICLICSLSQEHQGHRVRPIEEVALEHKKKIQKQLEHLKKLRKSGEEQRSYGEEKAVSFLKQTEALKQRVQRKLEQVYYFLEQQEHFFVASLEDVGQMVGQIRKAYDTRVSQDIALLDALIGELEAKECQSEWELLQDIGDILHRAKTVPVPEKWTTPQEIKQKIQLLHQKSEFVEKSTKYFSETLRSEMEMFNVPELIGAQAHAVNVILDAETAYPNLIFSDDLKSVRLGNKWERLPDGPQRFDSCIIVLGSPSFLSGRRYWEVEVGDKTAWILGACKTSISRKGNMTLSPENGYWVVIMMKENEYQASSVPPTRLLIKEPPKRVGIFVDYRVGSISFYNVTARSHIYTFASCSFSGPLQPIFSPGTRDGGKNTAPLTICPVGGQGPD
binding to GST-Galectin-8 in GST pulldown (Galectin-8): bound | binding to GST-Galectin-3 in GST pulldown (Galectin-3): bound

B4: TRIM6: TRIM (tripartite motif) protein tested in GST-Galectin pulldowns (protein)
chain: MTSPVLVDIREEVTCPICLELLTEPLSIDCGHSFCQACITPNGRESVIGQEGERSCPVCQTSYQPGNLRPNRHLANIVRRLREVVLGPGKQLKAVLCADHGEKLQLFCQEDGKVICWLCERSQEHRGHHTFLVEEVAQEYQEKFQESLKKLKNEEQEAEKLTAFIREKKTSWKNQMEPERCRIQTEFNQLRNILDRVEQRELKKLEQEEKKGLRIIEEAENDLVHQTQSLRELISDLERRCQGSTMELLQDVSDVTERSEFWTLRKPEALPTKLRSMFRAPDLKRMLRVCRELTDVQSYWVDVTLNPHTANLNLVLAKNRRQVRFVGAKVSGPSCLEKHYDCSVLGSQHFSSGKHYWEVDVAKKTAWILGVCSNSLGPTFSFNHFAQNHSAYSRYQPQSGYWVIGLQHNHEYRAYEDSSPSLLLSMTVPPRRVGVFLDYEAGTVSFYNVTNHGFPIYTFSKYYFPTTLCPYFNPCNCVIPMTLRRPSS
modifications: left off: small tags and cut ends
notes: TRIM (tripartite motif) protein tested in GST-Galectin pulldowns
binding to GST-Galectin-8 in GST pulldown (Galectin-8): bound | binding to GST-Galectin-3 in GST pulldown (Galectin-3): bound

B6: TRIM49: TRIM (tripartite motif) protein tested in GST-Galectin pulldowns (protein)
chain: MNSGILQVFQGELICPLCMNYFIDPVTIDCGHSFCRPCFYLNWQDIPFLVQCSECTKSTEQINLKTNIHLKKMASLARKVSLWLFLSSEEQMCGTHRETKKIFCEVDRSLLCLLCSSSQEHRYHRHRPIEWAAEEHREKLLQKMQSLWEKACENHRNLNVETTRTRCWKDYVNLRLEAIRAEYQKMPAFHHEEEKHNLEMLKKKGKEIFHRLHLSKAKMAHRMEILRGMYEELNEMCHKPDVELLQAFGDILHRSESVLLHMPQPLNPELSAGPITGLRDRLNQFRVHITLHHEEANNDIFLYEILRSMCIGCDHQDVPYFTATPRSFLAWGVQTFTSGKYYWEVHVGDSWNWAFGVCNMYRKEKNQNEKIDGKAGLFLLGCVKNDIQCSLFTTSPLMLQYIPKPTSRVGLFLDCEAKTVSFVDVNQSSLIYTIPNCSFSPPLRPIFCCIHF
modifications: left off: small tags and cut ends
notes: as for B4
binding to GST-Galectin-8 in GST pulldown (Galectin-8): bound | binding to GST-Galectin-3 in GST pulldown (Galectin-3): bound

Now from value to molecule:

binding to GST-Galectin-8 in GST pulldown (Galectin-8): did not | binding to GST-Galectin-3 in GST pulldown (Galectin-3): did not
B3: TRIM56: TRIM protein, Accession No. NM_030961, SEQ ID NO: 10 (protein, listed as Homo sapiens)
chain: MVSHGSSPSLLEALSSDFLACKICLEQLRAPKTLPCLHTYCQDCLAQLADGGRVRCPECRETVPVPPEGVASFKTNFFVNGLLDLVKARACGDLRAGKPACALCPLVGGTSTGGPATARCLDCADDLCQACADGHRCTRQTHTHRVVDLVGYRAGWYDEEARERQAAQCPQHPGEALRFLCQPCSQLLCRECRLDPHLDHPCLPLAEAVRARRPGLEGLLAGVDNNLVELEAARRVEKEALARLREQAARVGTQVEEAAEGVLRALLAQKQEVLGQLRAHVEAAEEAARERLAELEGREQVARAAAAFARRVLSLGREAEILSLEGAIAQRLRQLQGCPWAPGPAPCLLPQLELHPGLLDKNCHLLRLSFEEQQPQKDGGKDGAGTQGGEESQSRREDEPKTERQGGVQPQAGDGAQTPKEEKAQTTREEGAQTLEEDRAQTPHEDGGPQPHRGGRPNKKKKFKGRLKSISREPSPALGPNLDGSGLLPRPIFYCSFPTRMPGDKRSPRITGLCPFGPREILVADEQNRALKRFSLNGDYKGTVPVPEGCSPCSVAALQSAVAFSASARLYLINPNGEVQWRRALSLSQASHAVAALPSGDRVAVSVAGHVEVYNMEGSLATRFIPGGKASRGLRALVFLTTSPQGHFVGSDWQQNSVVICDGLGQVVGEYKGPGLHGCQPGSVSVDKKGYIFLTLREVNKVVILDPKGSLLGDFLTAYHGLEKPRVTTMVDGRYLVVSLSNGTIHIFRVRSPDS

binding to GST-Galectin-8 in GST pulldown (Galectin-8): bound | binding to GST-Galectin-3 in GST pulldown (Galectin-3): bound
B5: TRIM 17: TRIM (tripartite motif) protein tested in GST-Galectin pulldowns (protein)
chain: MEAVELARKLQEEATCSICLDYFTDPVMTTCGHNFCRACIQLSWEKARGKKGRRKRKGSFPCPECREMSPQRNLLPNRLLTKVAEMAQQHPGLQKQDLCQEHHEPLKLFCQKDQSPICVVCRESREHRLHRVLPAEEAVQGYKLKLEEDMEYLREQITRTGNLQAREEQSLAEWQGKVKERRERIVLEFEKMNLYLVEEEQRLLQALETEEEETASRLRESVACLDRQGHSLELLLLQLEERSTQGPLQMLQDMKEPLSRKNNVSVQCPEVAPPTRPRTVCRVPGQIEVLRGFLEDVVPDATSAYPYLLLYESRQRRYLGSSPEGSGFCSKDRFVAYPCAVGQTAFSSGRHYWEVGMNITGDALWALGVCRDNVSRKDRVPKCPENGFWVVQLSKGTKYLSTFSALTPVMLMEPPSHMGIFLDFEAGEVSFYSVSDGSHLHTYSQATFPGPLQPFFCLGAPKSGQMVISTVTMWVKG
modifications: left off: small tags and cut ends
notes: as for B4

binding to GST-Galectin-8 in GST pulldown (Galectin-8): did not | binding to GST-Galectin-3 in GST pulldown (Galectin-3): did not
B7: TRIM55: TRIM (tripartite motif) protein tested in GST-Galectin pulldowns (protein)
chain: MSASLNYKSFSKEQQTMDNLEKQLICPICLEMFTKPVVILPCQHNLCRKCASDIFQASNPYLPTRGGTTMASGGRFRCPSCRHEVVLDRHGVYGLQRNLLVENIIDIYKQESTRPEKKSDQPMCEEHEEERINIYCLNCEVPTCSLCKVFGAHKDCQVAPLTHVFQRQKSELSDGIAILVGSNDRVQGVISQLEDTCKTIEECCRKQKQELCEKFDYLYGILEERKNEMTQVITRTQEEKLEHVRALIKKYSDHLENVSKLVESGIQFMDEPEMAVFLQNAKTLLKKISEASKAFQMEKIEHGYENMNHFTVNLNREEKIIREIDFYREDEDEEEEEGGEGEKEGEGEVGGEAVEVEEVENVQTEFPGEDENPEKASELSQVELQAAPGALPVSSPEPPPALPPAADAPVTQGEVVPTGSEQTTESETPVPAAAETADPLFYPSWYKGQTRKATTNPPCTPGSEGLGQIGPPGSEDSNVRKAEVAAAAASERAAVSGKETSAPAATSQIGFEAPPLQGQAAAPASGSGADSEPARHIFSFSWLNSLNE
modifications: left off: small tags and cut ends
notes: as for B4
